Assay results: paper doi:10.1101/2023.08.17.553727

Biological target: B’β-GFP (Arabidopsis thaliana) (UniProt O04376)
Test: co-IP

UniProt O04376, sequence (O04376 whole entry): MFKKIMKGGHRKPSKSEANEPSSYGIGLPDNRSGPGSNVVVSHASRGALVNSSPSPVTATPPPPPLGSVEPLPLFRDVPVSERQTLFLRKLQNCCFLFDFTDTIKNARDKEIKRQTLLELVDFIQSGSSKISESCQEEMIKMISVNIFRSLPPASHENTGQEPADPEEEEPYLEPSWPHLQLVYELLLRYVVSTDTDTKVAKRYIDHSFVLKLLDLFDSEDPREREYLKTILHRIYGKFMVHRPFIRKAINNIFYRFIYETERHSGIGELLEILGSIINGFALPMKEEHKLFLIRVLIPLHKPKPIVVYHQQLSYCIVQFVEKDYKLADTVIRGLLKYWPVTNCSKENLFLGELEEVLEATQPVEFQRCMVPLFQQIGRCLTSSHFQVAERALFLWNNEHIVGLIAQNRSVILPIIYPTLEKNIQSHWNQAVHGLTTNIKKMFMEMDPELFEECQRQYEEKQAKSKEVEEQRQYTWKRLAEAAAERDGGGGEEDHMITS

binding ability to the C subunit relative to YFP-B’β (fold of YFP-B’β): 0.33
Substance: PP2A C subunit (from UniProt Q07099 1-306) (enzyme)
